According to the supplement of paper PMC10567573:

B1: EHMT1 (parent)
chain: FHKDCASRVNNASYCPHCGEESSK
B2: ZBED2 (parent)
chain: FHLAPARAGHHPNQYATCRLCGRQ

Variants of: B1
Test: protein stability index of a GFP-peptide fusion (GPS, HEK-293T) (PSI 1-6); higher = more stable
Settings: c terminus: a fixed tail appended
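Note: lentivirally expressed fusions sorted by FACS into six bins by GFP to DsRed ratio, PSI derived from sequencing read proportions per bin multiplied by bin number.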

Protein stability index: each site, then its substitutions
S23: C 4.21, I 3.87, E 3.21, G 3.34, H 3.48, W 2.69, V 3.41, K 3.16, T 3.72, M 3.49, P 3.15, Q 3.89, D 3.39, N 3.41, A 3.63, Y 3.6, R 3.21, F 3.63, L 3.15
G19: V 4.11, C 3.59, Q 3.35, P 3.75, S 3.48, Y 3.91, M 3.55, I 3.87, F 3, T 3.51, K 3.65, R 2.84, H 3.36, D 3.9, E 4.05, A 3.93, L 3.67, N 3.5, W 2.96
S22: K 3.77, D 3.35, I 3.68, N 3.93, H 4.09, V 3.38, C 3.59, L 3.22, Y 3.36, A 3.46, E 4.01, T 3.54, F 3.2, W 2.54, P 3.03, Q 3.55, G 2.81, R 3.05, M 3.31
C15: W 2.08, Y 2.74, N 3.88, K 3.68, R 3.49, M 3.16, H 3.56, E 4.22, S 3.55, I 3.32, V 3.67, Q 3.67, A 3.32, F 3.04, G 3.82, L 3.45, D 3.89, P 3.75, T 3.59
P16: D 3.52, Q 3.61, L 3.35, C 3.11, V 3.89, G 3.24, T 3.42, E 3.94, I 3.36, R 2.96, M 3.07, A 3.24, N 3.29, H 3.15, F 2.73, Y 2.58, K 3.57, W 1.66, S 3.23
K24: M 3.26, Y 2.9, E 3.11, T 3.25, V 3.47, Q 3.49, S 3.48, N 2.99, F 3.07, P 3.22, W 3.05, L 3.43, H 3.45, A 2.92, D 3.58, I 3.27, G 3.5, C 3.7, R 2.5
H17: C 3.45, E 3.47, Y 2.87, G 3.18, T 3.58, K 3.43, R 3.5, M 3.14, W 2.16, D 3.84, F 2.96, S 3.4, I 3.35, L 3.05, Q 3.21, P 2.87, N 3.85, V 3.54, A 3.68
E21: K 3.22, V 2.32, D 3.22, T 3.4, A 3.52, W 2.8, Q 3.12, F 2.93, M 2.64, G 3.29, L 2.55, H 3, R 2.92, S 2.71, Y 2.63, C 3.07, N 3.17, I 2.83, P 2.41
E20: P 3.27, M 3.15, T 3.19, I 2.95, Q 3.14, R 3.16, S 3.16, G 3.6, K 3.68, C 3.55, F 2.93, Y 3.46, W 3.77, V 2.94, A 3.21, D 3.92, N 3.37, L 2.78, H 2.99
C18: G 3.63, K 3.85, E 4.36, T 3.58, Y 3.16, L 2.76, M 2.96, W 2.31, H 3.62, V 3.75, R 3.73, Q 3.59, A 3.76, D 4.03, S 3.68, I 3.04, N 3.67, F 2.93, P 3.79
Y14: S 3.26, T 3.73, R 3.52, W 2.45, V 3.44, Q 4

Variants of: B2
Test: as above
Settings: c terminus: a fixed tail appended

Protein stability index of substitutions, site by site:
H2: S 1.59, M 2.43, F 1.42, T 2.76, L 1.86, A 1.46, D 2.41, K 1.95, W 1.26, I 2.37, Q 2.51, C 1.66, G 1.88, P 2.78, E 2.6, N 2.65
R7: S 1.4, F 2.11, G 2.22, C 3.77, V 1.73, K 2.59, L 1.92, N 2.15, E 2.04, A 1.74, I 1.55, Q 1.93, T 2.1, H 2.61, Y 2.09, P 1.92, M 2.13, D 2.34
P5: A 2.78, R 1.64, S 1.24, M 1.05, I 2.13, V 1.96, F 2.03, G 1.77, Y 1.52, E 2.36, N 1.84, L 2, K 1.83, H 1.99, Q 2.02, D 2.83, C 2.04, T 2.32
F1: A 2.9, G 1.71, E 3.31, V 2.74, L 2.13, W 1.59, D 3.36, T 2.45, I 2.21, Q 2.78, C 2.58, Y 1.43, P 3.07, N 2.73, M 2.1, K 2.53, H 2.46, S 3.33, R 2.77
A6: E 2.36, I 1.71, S 1.61, G 2.54, M 1.67, F 1.68, K 1.4, H 1.92, W 1.36, P 1.93, Q 1.8, C 3, T 1.51, L 1.67, V 2.15, D 1.89, N 1.65, R 1.77, Y 2.19
L3: N 2.23, C 1.71, T 2.25, Q 1.13, G 1.53, F 1.93, K 2.09, D 2.5, V 1.84, Y 1.95, E 2.75, P 3.45, I 1.38, M 1.84, A 1.61, S 1.45, H 1.71
A4: L 1.17, N 1.48, K 2.32, M 1.39, I 2.53, E 2.05, H 1.95, C 2.48, G 2.19, F 2.14, T 1.84, W 2.73, S 2.74, Q 1.91, D 1.59
A8: M 2.75, Q 2.02, F 2.6, D 1.36, S 1.76, T 1.83, G 2.87, C 3.28, E 2.34, H 1.75, P 2.56, K 1.69, L 2.47, I 2.73, N 2.31, R 1.3
